Experimental findings from paper PMC4282981 (Journal of immunology (Baltimore, Md. : 1950), 2014) are described below.

The target in this test is Endogenous SHP-1 (human (endogenous in YTS), UniProt P29350 1-595). The experiment in a line: co-IP.
Sequence of Endogenous SHP-1 (P29350 whole entry): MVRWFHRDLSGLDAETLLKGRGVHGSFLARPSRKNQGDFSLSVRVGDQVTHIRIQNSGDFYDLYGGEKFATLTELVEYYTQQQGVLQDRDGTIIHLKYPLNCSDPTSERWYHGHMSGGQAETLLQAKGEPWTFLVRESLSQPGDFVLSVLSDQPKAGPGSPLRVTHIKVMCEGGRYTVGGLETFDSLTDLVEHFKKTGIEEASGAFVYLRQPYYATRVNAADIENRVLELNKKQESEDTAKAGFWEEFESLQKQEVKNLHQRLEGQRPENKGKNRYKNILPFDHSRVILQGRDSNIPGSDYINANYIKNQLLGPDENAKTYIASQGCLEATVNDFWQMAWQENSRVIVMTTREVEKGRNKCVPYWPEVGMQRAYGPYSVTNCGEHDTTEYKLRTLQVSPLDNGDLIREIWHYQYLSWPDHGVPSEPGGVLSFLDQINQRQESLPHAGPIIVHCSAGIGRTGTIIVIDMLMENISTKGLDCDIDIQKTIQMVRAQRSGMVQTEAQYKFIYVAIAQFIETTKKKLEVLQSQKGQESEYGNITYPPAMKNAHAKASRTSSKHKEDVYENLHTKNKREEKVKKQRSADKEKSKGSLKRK

B1: KIR2DL1 H36A mutant tagged with Venus at the C-terminus (receptor, UniProt P43626 22-348, looked up)
chain: HEGVHRKPSLLAHPGRLVKSEETVILQCWSDVMFEAFLLHREGMFNDTLRLIGEHHDGVSKANFSISRMTQDLAGTYRCYGSVTHSPYQVSAPSDPLDIVIIGLYEKPSLSAQLGPTVLAGENVTLSCSSRSSYDMYHLSREGEAHERRLPAGPKVNGTFQADFPLGPATHGGTYRCFGSFHDSPYEWSKSSDPLLVSVTGNPSNSWPSPTEPSSKTGNPRHLHILIGTSVVIILFILLFFLLHRWCSNKKNAAVMDQESAGNRTANSEDSDEQDPQEVTYTQLNHCVFTQRKITRPSQRPKTPPTDIIVYTELPNAESRSKVVSCP
Take B1: the “fold association against 2DL1-WT” value was roughly 4 fold.
